From the nanobody polyreactivity screen of Harvey et al. (2022)

experiment: yeast display, Sf9 membrane polyspecificity reagent, FACS + sequencing; frameworks hold sequencing errors
Summary of the method: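 Using colony PCR, genes from sorted yeast display clones were amplified, then sequenced on MiSeq at 2 × 250 and filtered by CDR length. The clones had been stained with 10% biotinylated, detergent-solubilized Sf9 membrane reagent for 1 hour at 4 °C and sorted by FACS into low and high (top ~1%) gates on anti-HA and streptavidin fluorescence. Polyreactivity labels come from the gate of origin.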

| Sequence | polyreactivity (PSR sort gate) |
| --- | --- |
| QVQLVESGGGLVQAGGSLRLSCAASGSTFISYDMGWYRQAPGKERELVADITSVGGSTYYADSVKGRFTISRDNAKNTVYLQMNSLKPEDTAVYYCNAEAEWEEEGGSWGQGTQVTVSS | low polyreactivity |
| QVQLVESGGGLVQAGGSLRLSCAASGSTFIVNAMGWYRQAPGKERELVATISGGDSTDYADSVKGRFTISRDNAKNTVYLQMNSLKPEDTAVYYCNSDVHQYYFTPYDYWGQGTQVTVSS | low polyreactivity |
| QVQLVESGGGLVQAGGSLRLSCAASGSTFIVYAMGWYRQAPGKERELVASITWRGGSTYYADSVKGRFTISRDNAKNTVYFQMNSLKPEDTAVYYCARGYETTNYQKFYITDDGDYWGQGTQVTVSS | low polyreactivity |
| QVQLVESGGGLVQAGGSLRLSCAASGSTFIWNAMGSYRQAPGKERELVAAISSGGSTYYADSVKGRFTISRDNAKNTVYLQMNSLKPEDTAVYYCAAEYVYNVWEQRYAVYSTDDYWGQGTQVTVSS | low polyreactivity |
| QVQLVESGGGLVQAGGSLRLSCAASGSTFIWNAMGWYRQAPGKERELVATITGSGDRTTYADSVKGRFTISRDNAKNTVYLQMNSLKPEDTAVYYCAADAYRWWVRYDYWGQGTQVTVSS | low polyreactivity |
| QVQLVESGGGLVQAGGSLRLSCAASGSTFIYNAMGWYRQAPGKERELVAAISSGGSTYYADSVKGRFTISRDNAKNTVYLQMNSLKPEDTAVYYCNAYRYRHYRVDYWGQGTQVTVSS | low polyreactivity |
| QVQLVESGGGLVQAGGSLRLSCAASGSTFIYNTMGWYRQAPGKEREFVAAITQSGGDTYYADSVKGRFTISRDNAKNTVYLQMNSLKPEDTADYYCAAYWILNNFEMYYWGQGPQVTVSS | low polyreactivity |
| QVQLVESGGGLVQAGGSLRLSCAASGSTFIYYAMGWYRQAPGKERELVAAITSAGRTNYADSVKGRFTISRDNAKNTVYLQMNSLKPEDTAVYYCAAAYRPRKHHYDYWGQGTQVTVSS | high polyreactivity |
| QVQLVESGGGLVQAGGSLRLSCAASGSTFIYYAMGWYRQAPGKERELVAVITGNGGRTYYADSVKGRFTISRDNAKNTVYLQMNSLKPEDTAVYYCAALYDGIYDSWGQGTQVTVSS | high polyreactivity |
| QVQLVESGGGLVQAGGSLRLSCAASGSTFIYYAMGWYRQAPGKEWELVAAITSAGRTNYADSVKGRFTISLDNAKHTVYLQMNSLKPEDTAVYYCAAAYRPRKHHYDYWGQGTQVTVSS | high polyreactivity |
| QVQLVESGGGLVQAGGSLRLSCAASGSTFIYYTMGWYRQAPGKERELVAAIPSSGGSTYYADSVKGRFTISRDNAKNTVYLQMNSLKPEDTAVYYCAADGTYIKFAKLYRRYDYWGQGTLVTVSS | low polyreactivity |
| QVQLVESGGGLVQAGGSLRLSCAASGSTFKAYAMGLYRPAPGKERELVAAITRRGTSTYYADSVKGRFTISRDNAKNTVYLQMNSLKPEDTAVYYCNAKYVSDRSSAVSFDYWGQGTQVTVSS | low polyreactivity |
| QVQLVESGGGLVQAGGSLRLSCAASGSTFKAYAMGWYRQAPGKERELVAAITRRGTSTYYADSVKGRFTISRDNAKNTVYLQMNSLKPEDTAVYYCNAKYVSDRSSAVSFDYWGQGTQVTVSS | low polyreactivity |
| QVQLVESGGGLVQAGGSLRLSCAASGSTFKFNDMGWYRQAPGKERELVAAISRGGRTNYADSVKGRFTISRDNAKNTVYLQMNSLKPEDTAVYYCAADYSTLYKYDYWGQGTQVTVSS | low polyreactivity |
| QVQLVESGGGLVQAGGSLRLSCAASGSTFKFNTMGWYRQAPGKERELVAAISWRGGSTYYADSVKGRFTISRDNAKNTVYLQMYSLKPEDTAFYYCAAPWYIRYDSWGQGTQVTVSS | high polyreactivity |
| QVQLVESGGGLVQAGGSLRLSCAASGSTFKGYAMGWYRQAPGKERELVAAITWIGGSTTYADSVKGRFTISCDNAKNTVYLQMNSLKPEVTAVYYCAADNFWYFLSATEDYWGQGTQVTVSS | low polyreactivity |
| QVQLVESGGGLVQAGGSLRLSCAASGSTFKHNTMGWYRQAPGKERELVAAITSSGGTYYADSVKGRFTISRDNAKNTVYLQMNSLKPEDTAVYYCAARVTYRGRAYDYWGQGTQVTVSS | high polyreactivity |
| QVQLVESGGGLVQAGGSLRLSCAASGSTFKIYAMGWYRQAPGKERELVARITGRGGSTYYADSVKGRFTISRDNAKNTVYLQMNSLKPEDTAVYYCAARTYYVPYYYWGQGTQVTVSS | high polyreactivity |
| QVQLVESGGGLVQAGGSLRLSCAASGSTFKLNAMGWYRQAPGKERELLASISTGASTNYADSVKGRFTISLDNAKNTVYVQMNSLNPEDTAVYYCAAQYPFAGYYITQYEYDYWGQGTQVTVSS | low polyreactivity |
| QVQLVESGGGLVQAGGSLRLSCAASGSTFKPNAMGSYRQAPGKEREFVASITWSAGSTYYADSVKGRFTISRDNAKNTVYLQMNSLKPEDTAVYYCAARLRWAGISRYGYWGQGTQVTVSS | high polyreactivity |
| QVQLVESGGGLVQAGGSLRLSCAASGSTFKQYAMGWYRQAPGKERELVAAISTIGGSTYYADSVKGRFTISRDNAKITVYLQMNSLKPEDTAVYYCAAEYWYIWPYNYWGLGTQVTVSS | high polyreactivity |

| Sequence | polyreactivity (PSR sort gate) |
| --- | --- |
| QVQLVESGGGLVQAGGSLRLSCAASGSTFKRYAKGWYRQAPGKERELVAAITLSGGNTYYADSVKGRFTISRDNAKNTVYLQMNSLKPEDTAVYYCAARRYRGYDYWGQGTQVTVSS | high polyreactivity |
| QVQLVESGGGLVQAGGSLRLSCAASGSTFKRYAMGWYRQAPGKERELVAAINRSGTSTYADSVKGRFTISRDNAKNTVYLQMNSLKPEDSAVYYCARYYAYLRVKYDYWGQGTQVTVSS | high polyreactivity |
| QVQLVESGGGLVQAGGSLRLSCAASGSTFKSNAMGWYRQAPGKERELVAAINRSGAGTYYADSVKGRFTISRDNAKHTVYLQLNSLKPEDTAVYYCAAQSYSRRYDYWGQGTQVTVSS | high polyreactivity |
| QVQLVESGGGLVQAGGSLRLSCAASGSTFKSYTMGWYRPAPGKERELVAAISGSGGRTYYADSVKGRFTISRDNAKNTVYLQMNSLKPEDTAVYYCAATGPYGFYWGQGTQVTVSS | high polyreactivity |
| QVQLVESGGGLVQAGGSLRLSCAASGSTFKSYVMGWYRAAPGKERELVAAISTGDSTYYADSVKGRFTISRDNAKNTVYLQMNSLKPEDTAVYYCAADPGYTVEPWEDDYWGQGTQVTVSS | low polyreactivity |
| QVQLVESGGGLVQAGGSLRLSCAASGSTFKSYVMGWYRQAPGKERELVAAISSGDSTYYADSVKGRFTISRDNAKNTVYLQMNSLKPEDTAVYYCAADPGYTVEPWEDDDWGQGTQVTVSS | low polyreactivity |
| QVQLVESGGGLVQAGGSLRLSCAASGSTFKSYVMGWYRQAPGKERELVAAISSGDSTYYADSVKGRFTISRDNAKNTVYLQMNSLKPEDTAVYYCNADVSLDDYDYWGQGTQVTVSS | low polyreactivity |
| QVQLVESGGGLVQAGGSLRLSCAASGSTFKVYAMGWYRQAPGKERELVAVISGGGRTNYADSVKGRFTISRDNAKNTVYLQMNSLKPEDTAVYYCAAQATYHRYYTYYYWGQGTKVTVSS | high polyreactivity |
| QVQLVESGGGLVQAGGSLRLSCAASGSTFKWNAMGWYRQAPGKERELVAAISKGSVNTYYADSVKGRFTISRDNAKNTVYLQMNSLKPEDTAVYYCAADRRYPALDYWGQGTQVTVSS | high polyreactivity |
| QVQLVESGGGLVQAGGSLRLSCAASGSTFKWYAMGWYRQAPGKERELVATISSGGSTNYADSVKGRFTISRDNAKNTVYLQMNSLKPEDTAVYYCAAANFKWGQGTQVTVTS | low polyreactivity |
| QVQLVESGGGLVQAGGSLRLSCAASGSTFKYNAMGWYRQAPGKERELVASISRSGGSTYYADSVKGRFTISRDNAKNTVYLQMNSLKPEDTAVYYCNVRRFVHYEYWGQGTQVTVSS | high polyreactivity |
| QVQLVESGGGLVQAGGSLRLSCAASGSTFKYNAMGWYRQAPGKERELVATISGTGGSTYYADSVKGRFTISRDNAKNTVYLQMNSLKPEDTAVYYCAARWGRSQLRYYYWGQGTQVTVSS | high polyreactivity |
| QVQLVESGGGLVQAGGSLRLSCAASGSTFKYYVMGWYRQAPGKERELVAAITRSGSTNYADSVKGRFTISRDNAKNTVYLQMNSLKPEDTAVYYCAAERALSRYGYWGQGTQVTVSS | low polyreactivity |
| QVQLVESGGGLVQAGGSLRLSCAASGSTFLAYAMGWYRQAPGKERELVAAISSRGSRTYYADSVKGRFTISRDNAKNTVYLQMNSLKPEDTAVYYCATPYSRSYSYRYDYWGQGTQVTVSS | high polyreactivity |
| QVQLVESGGGLVQAGGSLRLSCAASGSTFLGNAMGWYRQAPGKERELVATITGSSGSTYYADSVKGRFTISRDNAKNTVYLQMNSLKPEDTAVYYCNTVYNYWDGYDYWGQGTQVTVSS | low polyreactivity |
| QVQLVESGGGLVQAGGSLRLSCAASGSTFLGNAMGWYSQAPGKERELVASISWSGGSTSYADSVKGRFTISRDIAKNTVYLLMNSLKPEDTAVYYCAVDWRYTGRTYYGMESWGQGTQVTVSS | low polyreactivity |
| QVQLVESGGGLVQAGGSLRLSCAASGSTFLHYAMGWYRQAPGKERELVAAISFSGVRTYYADSVKGRFTISRDNAKNTVYLQLNSLKPEDNAVYYCDADGHHADYDYLGQGTQVTVSS | low polyreactivity |
| QVQLVESGGGLVQAGGSLRLSCAASGSTFLINAMGWYRQAPGKEREFVAAITSSGGTTYYADSVKGRFTISRDNAKNTVYLQMNSLKPEDTAVYYCAAVSRSRREKKFDYWGQGTQVTVSS | low polyreactivity |
| QVQLVESGGGLVQAGGSLRLSCAASGSTFLINAMGWYRQAPGKERELVAAITGRGGSTYYADSVKGRFTISRDNAKNTVYLQMNSLKPEDTAVYYCNAERLGTGYRYDYWGQGTQVTVSS | high polyreactivity |
| QVQLVESGGGLVQAGGSLRLSCAASGSTFLKNAMGWYRQAPGKERELVAAISYSTTRTYYAVSVKGRFTISRDNAKNTVYLQINSLKPEDTAVYYCAARYDRSSKRNYWGQGTQVTVSS | low polyreactivity |
